{"source": "patent US20150344570A1", "about": "(published 2015)", "binders": {"B1": {"name": "GpH7-B3 variant L235_20W/GpL16-k0 (antibody, human IgG1, kappa)", "heavy": "not shown", "light": "DIVMTQSPLSLPVTPGEPASISCQASESLVHSNRNTYLHWYLQKPGQSPQLLIYKVSNRFSGVPDRFSGSGSGTDFTLKISRVEAEDVGVYYCSQNTHVPPTFGQGTKVEIERTVAAPSVFIFPPSDEQLKSGTASVVCLLNNFYPREAKVQWKVDNALQSGNSQESVTEQDSKDSTYSLSSTLTLSKADYEKHKVYACEVTHQGLSSPVTKSFNRGEC", "notes": "both H chains mutated; also called Ho Ab"}, "B2": {"name": "GpH7-A5/GpH7-B3 variant I332_02A/GpL16-k0 (antibody, human IgG1, kappa)", "heavy 1": "not shown", "heavy 2": "not shown", "light": "B1 light", "notes": "one H chain mutated; also called He Ab"}, "B3": {"name": "GpH7-A5/GpH7-B3 variant I332_04F/GpL16-k0 (antibody, human IgG1, kappa)", "heavy 1": "not shown", "heavy 2": "not shown", "light": "B1 light", "notes": "as for B2"}, "B4": {"name": "GpH7-B3 variant S324_09D/GpL16-k0 (antibody, human IgG1, kappa)", "heavy": "not shown", "light": "B1 light", "notes": "as for B1"}, "B5": {"name": "GpH7-B3 variant L328_13S/GpL16-k0 (antibody, human IgG1, kappa)", "heavy": "not shown", "light": "B1 light", "notes": "as for B1"}, "B6": {"name": "GpH7-B3 variant S337_09D/GpL16-k0 (antibody, human IgG1, kappa)", "heavy": "not shown", "light": "B1 light", "notes": "as for B1"}, "B7": {"name": "GpH7-A5/GpH7-B3 variant I336_06M/GpL16-k0 (antibody, human IgG1, kappa)", "heavy 1": "not shown", "heavy 2": "not shown", "light": "B1 light", "notes": "as for B2"}, "B8": {"name": "GpH7-B3 variant L328_02A/GpL16-k0 (antibody, human IgG1, kappa)", "heavy": "not shown", "light": "B1 light", "notes": "as for B1"}, "B9": {"name": "GpH7-B3 variant S324_10E/GpL16-k0 (antibody, human IgG1, kappa)", "heavy": "not shown", "light": "B1 light", "notes": "as for B1"}, "B10": {"name": "GpH7-A5/GpH7-B3 variant K334_03V/GpL16-k0 (antibody, human IgG1, kappa)", "heavy 1": "not shown", "heavy 2": "not shown", "light": "B1 light", "notes": "as for B2"}, "B11": {"name": "GpH7-A5/GpH7-B3 variant H268_18N/GpL16-k0 (antibody, human IgG1, kappa)", "heavy 1": "not shown", "heavy 2": "not shown", "light": "B1 light", "notes": "as for B2"}, "B12": {"name": "GpH7-A5/GpH7-B3 variant K326_19Q/GpL16-k0 (antibody, human IgG1, kappa)", "heavy 1": "not shown", "heavy 2": "not shown", "light": "B1 light", "notes": "as for B2"}, "B13": {"name": "GpH7-B3 variant Q295_05P/GpL16-k0 (antibody, human IgG1, kappa)", "heavy": "not shown", "light": "B1 light", "notes": "as for B1"}, "B14": {"name": "GpH7-A5/GpH7-B3 variant I332_16H/GpL16-k0 (antibody, human IgG1, kappa)", "heavy 1": "not shown", "heavy 2": "not shown", "light": "B1 light", "notes": "as for B2"}, "B15": {"name": "GpH7-B3 variant T335_16H/GpL16-k0 (antibody, human IgG1, kappa)", "heavy": "not shown", "light": "B1 light", "notes": "as for B1"}, "B16": {"name": "GpH7-B3 variant S267_02A/GpL16-k0 (antibody, human IgG1, kappa)", "heavy": "not shown", "light": "B1 light", "notes": "as for B1"}, "B17": {"name": "GpH7-A5/GpH7-B3 variant I332_19Q/GpL16-k0 (antibody, human IgG1, kappa)", "heavy 1": "not shown", "heavy 2": "not shown", "light": "B1 light", "notes": "as for B2"}, "B18": {"name": "GpH7-B3 variant L328_06M/GpL16-k0 (antibody, human IgG1, kappa)", "heavy": "not shown", "light": "B1 light", "notes": "as for B1"}, "B19": {"name": "GpH7-A5/GpH7-B3 variant G236_03V/GpL16-k0 (antibody, human IgG1, kappa)", "heavy 1": "not shown", "heavy 2": "not shown", "light": "B1 light", "notes": "as for B2"}, "B20": {"name": "GpH7-B3 variant S239_09D/GpL16-k0 (antibody, human IgG1, kappa)", "heavy": "not shown", "light": "B1 light", "notes": "as for B1"}, "B21": {"name": "GpH7-B3 variant S324_20W/GpL16-k0 (antibody, human IgG1, kappa)", "heavy": "not shown", "light": "B1 light", "notes": "as for B1"}, "B22": {"name": "GpH7-A5/GpH7-B3 variant I332_06M/GpL16-k0 (antibody, human IgG1, kappa)", "heavy 1": "not shown", "heavy 2": "not shown", "light": "B1 light", "notes": "as for B2"}, "B23": {"name": "GpH7-B3 variant T335_19Q/GpL16-k0 (antibody, human IgG1, kappa)", "heavy": "not shown", "light": "B1 light", "notes": "as for B1"}, "B24": {"name": "GpH7-A5/GpH7-B3 variant G236_10E/GpL16-k0 (antibody, human IgG1, kappa)", "heavy 1": "not shown", "heavy 2": "not shown", "light": "B1 light", "notes": "as for B2"}, "B25": {"name": "GpH7-A5/GpH7-B3 variant H268_10E/GpL16-k0 (antibody, human IgG1, kappa)", "heavy 1": "not shown", "heavy 2": "not shown", "light": "B1 light", "notes": "as for B2"}, "B26": {"name": "GpH7-A5/GpH7-B3 variant I336_08L/GpL16-k0 (antibody, human IgG1, kappa)", "heavy 1": "not shown", "heavy 2": "not shown", "light": "B1 light", "notes": "as for B2"}, "B27": {"name": "GpH7-A5/GpH7-B3 variant K326_14T/GpL16-k0 (antibody, human IgG1, kappa)", "heavy 1": "not shown", "heavy 2": "not shown", "light": "B1 light", "notes": "as for B2"}}, "key": {"[1]": {"target": "T1, FcγRIIa H (FcγRIIa type H, His at position 131), extracellular domain with C-terminal His tag (human, UniProt P12318 34-217)", "T1 construct": "extracellular domain; also called FcgRIIa H; 2aH", "T1 sequence (looked up)": "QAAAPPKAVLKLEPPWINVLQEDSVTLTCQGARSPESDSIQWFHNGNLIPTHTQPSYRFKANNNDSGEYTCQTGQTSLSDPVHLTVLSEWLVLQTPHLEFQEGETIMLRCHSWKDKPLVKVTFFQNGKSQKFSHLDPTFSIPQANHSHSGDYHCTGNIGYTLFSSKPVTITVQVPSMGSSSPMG", "experiment": "SPR Biacore, relative binding, GpH7-B3/GpL16-k0 (HoCon Ab)=100", "procedure": "(§1) Analysis of interaction between objective antibody and the FcγR was carried out using Biacore T100 (GE Healthcare). HBS-EP+ (GE Healthcare) was used as the running buffer, and the measurement temperature was set to 25° C. Chips produced by immobilizing the antigen peptide by the amine coupling method to a Series S Sencor Chip CM5 (GE Healthcare), or alternatively, chips produced by allowing preliminarily biotinylated antigen peptides to interact with and immobilize onto a Series S Sensor Chip SA (certified) (GE Healthcare) were used. Antibodies of interest were captured onto an antigen peptide-immobilized chip, and allowed to interact to each FcγR diluted with running buffer. To regenerate and repeatedly use the chip, the antibodies captured on the chip were washed off by reacting 10 mM glycine-HCl, pH 1.5."}, "[2]": {"target": "T1, FcγRIIa H (FcγRIIa type H, His at …)", "experiment": "SPR Biacore, relative binding, GpH7-A5/GpH7-B3/GpL16-k0 (HeCon Ab)=100", "procedure": "as §1"}}}
{"binder": "B1", "values": [{"measurement": "Ho/Con_2aH", "setting": "[1]", "value": "112 % of control"}]}
{"binder": "B2", "values": [{"measurement": "He/Con_2aH", "setting": "[2]", "value": "111 % of control"}]}
{"binder": "B3", "values": [{"measurement": "He/Con_2aH", "setting": "[2]", "value": "104 % of control"}]}
{"binder": "B4", "values": [{"measurement": "Ho/Con_2aH", "setting": "[1]", "value": "113 % of control"}]}
{"binder": "B5", "values": [{"measurement": "Ho/Con_2aH", "setting": "[1]", "value": "131 % of control"}]}
{"binder": "B6", "values": [{"measurement": "Ho/Con_2aH", "setting": "[1]", "value": "107 % of control"}]}
{"binder": "B7", "values": [{"measurement": "He/Con_2aH", "setting": "[2]", "value": "106 % of control"}]}
{"binder": "B8", "values": [{"measurement": "Ho/Con_2aH", "setting": "[1]", "value": "134 % of control"}]}
{"binder": "B9", "values": [{"measurement": "Ho/Con_2aH", "setting": "[1]", "value": "104 % of control"}]}
{"binder": "B10", "values": [{"measurement": "He/Con_2aH", "setting": "[2]", "value": "109 % of control"}]}
{"binder": "B11", "values": [{"measurement": "He/Con_2aH", "setting": "[2]", "value": "112 % of control"}]}
{"binder": "B12", "values": [{"measurement": "He/Con_2aH", "setting": "[2]", "value": "101 % of control"}]}
{"binder": "B13", "values": [{"measurement": "Ho/Con_2aH", "setting": "[1]", "value": "106 % of control"}]}
{"binder": "B14", "values": [{"measurement": "He/Con_2aH", "setting": "[2]", "value": "109 % of control"}]}
{"binder": "B15", "values": [{"measurement": "Ho/Con_2aH", "setting": "[1]", "value": "100 % of control"}]}
{"binder": "B16", "values": [{"measurement": "Ho/Con_2aH", "setting": "[1]", "value": "120 % of control"}]}
{"binder": "B17", "values": [{"measurement": "He/Con_2aH", "setting": "[2]", "value": "108 % of control"}]}
{"binder": "B18", "values": [{"measurement": "Ho/Con_2aH", "setting": "[1]", "value": "100 % of control"}]}
{"binder": "B19", "values": [{"measurement": "He/Con_2aH", "setting": "[2]", "value": "119 % of control"}]}
{"binder": "B20", "values": [{"measurement": "Ho/Con_2aH", "setting": "[1]", "value": "112 % of control"}]}
{"binder": "B21", "values": [{"measurement": "Ho/Con_2aH", "setting": "[1]", "value": "108 % of control"}]}
{"binder": "B22", "values": [{"measurement": "He/Con_2aH", "setting": "[2]", "value": "110 % of control"}]}
{"binder": "B23", "values": [{"measurement": "Ho/Con_2aH", "setting": "[1]", "value": "103 % of control"}]}
{"binder": "B24", "values": [{"measurement": "He/Con_2aH", "setting": "[2]", "value": "111 % of control"}]}
{"binder": "B25", "values": [{"measurement": "He/Con_2aH", "setting": "[2]", "value": "124 % of control"}]}
{"binder": "B26", "values": [{"measurement": "He/Con_2aH", "setting": "[2]", "value": "106 % of control"}]}
{"binder": "B27", "values": [{"measurement": "He/Con_2aH", "setting": "[2]", "value": "114 % of control"}]}
